Source: patent US10428140B2, “Anti-EphA4 antibody” (EISAI R&D MANAGEMENT CO., LTD., priority 2015, dated 2019)
Substitutions are numbered along the chain they refer to.

T1: human EphA8 (Homo sapiens, UniProt P29322)
T1 construct: a protein of the extracellular region of each human Eph receptor fused with the SEAP protein and the His tag; made in house; host or cells: Expi293F cells (culture supernatant)
T1 sequence (P29322 28-542 limits assumed): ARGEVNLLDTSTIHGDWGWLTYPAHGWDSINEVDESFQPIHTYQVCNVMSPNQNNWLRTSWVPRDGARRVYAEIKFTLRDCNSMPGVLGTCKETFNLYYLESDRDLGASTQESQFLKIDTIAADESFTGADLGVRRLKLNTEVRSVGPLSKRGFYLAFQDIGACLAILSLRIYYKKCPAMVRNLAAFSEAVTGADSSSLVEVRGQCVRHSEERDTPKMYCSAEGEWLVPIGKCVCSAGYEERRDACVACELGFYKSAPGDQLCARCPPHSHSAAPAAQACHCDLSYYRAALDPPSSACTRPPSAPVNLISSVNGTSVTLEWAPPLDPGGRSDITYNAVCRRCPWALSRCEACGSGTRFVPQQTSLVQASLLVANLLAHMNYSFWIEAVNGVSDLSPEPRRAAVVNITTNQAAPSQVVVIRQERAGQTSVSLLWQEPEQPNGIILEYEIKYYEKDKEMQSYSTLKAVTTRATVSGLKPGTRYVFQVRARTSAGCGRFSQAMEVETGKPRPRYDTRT

T2: human EphB1 (Homo sapiens, UniProt P54762)
T2 construct: a protein of the extracellular region of each human Eph receptor fused with the SEAP protein and the His tag; made in house; host or cells: Expi293F cells (culture supernatant)
T2 sequence (P54762 18-540 limits assumed): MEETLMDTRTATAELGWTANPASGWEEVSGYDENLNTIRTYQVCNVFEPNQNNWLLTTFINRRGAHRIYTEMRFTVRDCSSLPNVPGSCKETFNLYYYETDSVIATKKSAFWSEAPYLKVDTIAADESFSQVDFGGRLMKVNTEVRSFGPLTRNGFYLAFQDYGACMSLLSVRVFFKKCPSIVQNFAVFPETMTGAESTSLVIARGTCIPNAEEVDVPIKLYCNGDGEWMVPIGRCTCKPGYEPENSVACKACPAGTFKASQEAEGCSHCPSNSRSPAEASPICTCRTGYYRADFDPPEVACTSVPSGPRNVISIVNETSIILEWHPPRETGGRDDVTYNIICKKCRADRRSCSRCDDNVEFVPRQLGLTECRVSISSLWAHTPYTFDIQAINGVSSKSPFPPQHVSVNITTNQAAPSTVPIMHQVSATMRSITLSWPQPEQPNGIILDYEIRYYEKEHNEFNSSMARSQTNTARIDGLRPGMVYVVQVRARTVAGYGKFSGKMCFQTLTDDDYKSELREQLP

B1: 87 (antibody, V domains shown)
VL: DIQMTQSPSSLSASVGDRVTITCRASENIYRNLAWYQQKPGKAPQLLLYAATNLADGVPSRFSGSGSGTDYTLTISSLQPEDFATYYCQHFWGTPWTFGQGTKVEIK
VH: QVQLVQSGSELKKPGASVKVSCKASGYTFTDYSMHWVRQAPGQGLEWMGWINTETGEPTYAQGFTGRFVFSLDTSVSTAYLQISSLKAEDTAVYYCARIPLYYYGSRYWYFDVWGQGTTVTVSS
modifications: constant regions without entry; synthetic humanized antibody light chain variable region sequence; synthetic humanized antibody heavy chain variable region sequence
B2: 88 (antibody, V domains shown)
VL: B1 VL
VH: B1 VH with E46K
modifications: constant regions without entry; synthetic humanized antibody light chain variable region sequence; synthetic humanized antibody heavy chain variable region sequence
B3: 94 (antibody, V domains shown)
VL: EIVMTQSPATLSVSPGERATLSCRASENIYRNLAWYQQKPGQSPRLLIYAATNLADGIPARFSGSGSGTEYTLTISSLQSEDFAVYYCQHFWGTPWTFGQGTKVEIK
VH: B1 VH with E46K
modifications: constant regions without entry; synthetic humanized antibody light chain variable region sequence; synthetic humanized antibody heavy chain variable region sequence
B4: 71 (antibody, V domains shown)
VH: B1 VH with V2I, E46K
VL: B3 VL
modifications: synthetic humanized antibody heavy chain variable region sequence; synthetic humanized antibody light chain variable region sequence
B5: 93 (antibody, V domains shown)
VL: B3 VL
VH: B1 VH
modifications: constant regions without entry; synthetic humanized antibody light chain variable region sequence; synthetic humanized antibody heavy chain variable region sequence
B6: 89 (antibody, V domains shown)
VL: B1 VL
VH: B1 VH with V2I, E46K
modifications: constant regions without entry; synthetic humanized antibody light chain variable region sequence; synthetic humanized antibody heavy chain variable region sequence
B7: 91 (antibody, V domains shown)
VL: B1 VL
VH: B1 VH with E46K, Q62D, G63D, T65K
modifications: constant regions without entry; synthetic humanized antibody light chain variable region sequence; synthetic humanized antibody heavy chain variable region sequence
B8: 92 (antibody, V domains shown)
VL: B1 VL
VH: B1 VH with V2I, E46K, Q62D, G63D, T65K
modifications: constant regions without entry; synthetic humanized antibody light chain variable region sequence; synthetic humanized antibody heavy chain variable region sequence
B9: 90 (antibody, V domains shown)
VL: B1 VL
VH: B1 VH with Q62D, G63D, T65K
modifications: constant regions without entry; synthetic humanized antibody light chain variable region sequence; synthetic humanized antibody heavy chain variable region sequence

How the values were obtained:
Assay in all cases: Selectivity ELISA of humanized antibodies for human Eph receptor
Type in all cases: binding
[1] = biological target: SEAP-His (Homo sapiens, UniProt P05187); conditions: coated protein 1 nM
How it was run: (§1)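 Human Eph ECD-SEAP-His fusions, harvested after 5 days of Expi293F expression, are captured on anti-His-coated wells (1 nM final). Bound humanized antibody is detected with HRP anti-IgG and TMB at 450 nm.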

[2] = biological target: T3, human EphA2 (Homo sapiens, UniProt P29317); conditions: coated protein 1 nM
T3 construct: a protein of the extracellular region of each human Eph receptor fused with the SEAP protein and the His tag; made in house; host or cells: Expi293F cells (culture supernatant)
How it was run: as §1

[3] = biological target: T4, human EphA4 (Homo sapiens, UniProt P54764); conditions: coated protein 1 nM; reference set to 100%
T4 construct: made in house; not restated for the human SEAP-His protein
How it was run: as §1

[4] = biological target: T5, human EphA5 (Homo sapiens, UniProt P54756); conditions: coated protein 1 nM
T5 construct: a protein of the extracellular region of each human Eph receptor fused with the SEAP protein and the His tag; made in house; host or cells: Expi293F cells (culture supernatant)
How it was run: as §1

[5] = biological target: T1, human EphA8; conditions: coated protein 1 nM
How it was run: as §1

[6] = biological target: T2, human EphB1; conditions: coated protein 1 nM
How it was run: as §1

T4 sequence (P54764 20-547): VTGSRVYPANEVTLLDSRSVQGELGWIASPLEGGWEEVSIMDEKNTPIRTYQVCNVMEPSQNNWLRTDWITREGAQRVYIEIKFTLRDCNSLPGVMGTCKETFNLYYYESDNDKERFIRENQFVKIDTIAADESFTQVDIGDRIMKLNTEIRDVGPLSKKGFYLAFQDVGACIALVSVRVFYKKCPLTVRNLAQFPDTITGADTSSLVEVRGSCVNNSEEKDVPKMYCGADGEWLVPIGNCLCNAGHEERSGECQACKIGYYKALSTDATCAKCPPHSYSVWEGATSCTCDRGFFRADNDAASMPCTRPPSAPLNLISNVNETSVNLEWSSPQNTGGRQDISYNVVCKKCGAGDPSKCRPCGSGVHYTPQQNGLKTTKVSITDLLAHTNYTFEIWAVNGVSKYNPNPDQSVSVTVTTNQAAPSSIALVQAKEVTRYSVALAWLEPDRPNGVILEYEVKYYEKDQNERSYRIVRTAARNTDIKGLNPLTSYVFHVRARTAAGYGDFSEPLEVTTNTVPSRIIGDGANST
T5 sequence (P54756 25-573 limits assumed): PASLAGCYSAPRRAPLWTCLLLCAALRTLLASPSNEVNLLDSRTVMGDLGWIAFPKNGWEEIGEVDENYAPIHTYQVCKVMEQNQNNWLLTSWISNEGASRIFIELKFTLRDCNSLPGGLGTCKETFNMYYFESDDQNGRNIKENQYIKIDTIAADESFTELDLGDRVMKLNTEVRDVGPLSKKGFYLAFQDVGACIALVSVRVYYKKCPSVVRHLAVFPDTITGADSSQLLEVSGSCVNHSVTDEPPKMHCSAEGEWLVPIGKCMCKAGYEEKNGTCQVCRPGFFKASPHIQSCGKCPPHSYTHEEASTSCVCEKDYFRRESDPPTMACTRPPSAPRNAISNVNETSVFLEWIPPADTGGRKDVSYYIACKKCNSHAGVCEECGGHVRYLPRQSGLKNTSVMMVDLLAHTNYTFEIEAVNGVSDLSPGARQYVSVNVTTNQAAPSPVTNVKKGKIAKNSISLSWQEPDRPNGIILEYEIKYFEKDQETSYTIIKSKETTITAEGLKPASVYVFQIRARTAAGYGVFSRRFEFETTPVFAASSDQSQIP
Chain of SEAP-His (P05187 23-511 limits assumed): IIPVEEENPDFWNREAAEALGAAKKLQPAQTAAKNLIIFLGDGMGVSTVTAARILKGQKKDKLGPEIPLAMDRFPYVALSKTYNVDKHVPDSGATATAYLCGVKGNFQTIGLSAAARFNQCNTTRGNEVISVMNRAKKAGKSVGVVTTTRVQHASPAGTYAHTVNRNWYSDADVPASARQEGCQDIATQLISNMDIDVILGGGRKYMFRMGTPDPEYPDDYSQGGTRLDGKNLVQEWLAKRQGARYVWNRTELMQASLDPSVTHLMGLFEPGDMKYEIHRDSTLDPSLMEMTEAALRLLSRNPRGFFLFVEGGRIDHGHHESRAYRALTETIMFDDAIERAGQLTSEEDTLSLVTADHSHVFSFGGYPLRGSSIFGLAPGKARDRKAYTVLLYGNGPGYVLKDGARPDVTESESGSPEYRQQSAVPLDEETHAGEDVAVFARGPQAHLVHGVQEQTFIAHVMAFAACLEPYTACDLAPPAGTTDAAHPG
T3 sequence (P29317 24-537 limits assumed): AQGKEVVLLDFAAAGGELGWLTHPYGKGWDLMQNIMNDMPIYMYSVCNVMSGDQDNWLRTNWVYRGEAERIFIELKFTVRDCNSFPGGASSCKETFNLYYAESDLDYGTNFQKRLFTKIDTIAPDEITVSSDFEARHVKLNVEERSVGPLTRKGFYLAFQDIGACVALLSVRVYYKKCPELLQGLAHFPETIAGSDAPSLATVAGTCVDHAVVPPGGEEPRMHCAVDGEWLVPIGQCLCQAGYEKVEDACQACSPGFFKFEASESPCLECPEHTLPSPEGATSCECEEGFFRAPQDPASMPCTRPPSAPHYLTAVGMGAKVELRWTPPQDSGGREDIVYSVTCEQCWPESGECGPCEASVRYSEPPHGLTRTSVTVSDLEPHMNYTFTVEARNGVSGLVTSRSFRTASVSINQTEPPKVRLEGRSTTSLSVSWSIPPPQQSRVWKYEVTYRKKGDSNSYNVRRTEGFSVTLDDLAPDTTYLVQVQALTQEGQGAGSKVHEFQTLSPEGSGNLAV

Molecule | SEAP-His: absorbance at 450 nm, percentage with respect to hEphA4-SEAP-His as 100% [1] [%] | hEphA2-SEAP-: absorbance at 450 nm, percentage with respect to hEphA4-SEAP-His as 100% [2] [%] | hEphA4-SEAP-: absorbance at 450 nm, percentage with respect to hEphA4-SEAP-His as 100% [3] [%] | hEphA5-SEAP-: absorbance at 450 nm, percentage with respect to hEphA4-SEAP-His as 100% [4] [%] | hEphA8-SEAP-: absorbance at 450 nm, percentage with respect to hEphA4-SEAP-His as 100% [5] [%] | hEphB1-SEAP-: absorbance at 450 nm, percentage with respect to hEphA4-SEAP-His as 100% [6] [%]
B1 | 5.5 | 5.4 | 100 | 5.4 | 5.7 | 5.3
B2 | 6.1 | 5.8 | 100 | 5.9 | 6.2 | 6.1
B3 | 6.7 | 6.4 | 100 | 6.5 | 7.0 | 6.7
B4 | 5.6 | 5.7 | 100 | 5.6 | 5.3 | 5.4
B5 | 5.0 | 5.0 | 100 | 4.9 | 5.0 | 5.0
B6 | 5.8 | 5.6 | 100 | 5.8 | 5.7 | 5.7
B7 | 6.4 | 6.1 | 100 | 6.4 | 6.2 | 6.6
B8 | 6.5 | 6.9 | 100 | 6.8 | 6.7 | 6.9
B9 | 5.2 | 5.2 | 100 | 5.1 | 5.4 | 4.9
